Key:
[1] = molecular target: Rse-IgG fusion protein (extracellular domain of human Rse followed by the Fc portion of human IgG) (human) (UniProt Q06418); assay: 125I-Rse-IgG binding to CMK11-5 membranes
[2] = molecular target: Rse-IgG fusion protein (extracellular domain of human Rse followed by the Fc portion of human IgG) (human) (UniProt Q06418); assay: 125I-Rse-IgG binding assay
[3] = molecular target: Rse.gD (human Rse receptor with a C-terminal HSV-1 glycoprotein D flag) on dp12.CHO cells (human) (UniProt Q06418)
[4] = molecular target: Rse ligand (Rse-L) in fetal bovine serum, unpurified or Q-Sepharose enriched (bovine) (UniProt P07224); assay: Scatchard analysis, 125I-Rse-IgG displaced by unlabeled Rse-IgG on CMK11-5 membranes, 1% FBS
[5] = molecular target: Rse ligand (Rse-L) in fetal bovine serum, unpurified or Q-Sepharose enriched (bovine) (UniProt P07224); assay: Scatchard analysis, 125I-Rse-IgG displaced by unlabeled Rse-IgG on CMK11-5 membranes, 10% FBS
[6] = molecular target: recombinant human gas6 (human); assay: 125I-Rse-IgG and purified gas6, displaced by unlabeled Rse-IgG, barium chloride coprecipitation
[7] = molecular target: Rse.gD (human Rse receptor with a C-terminal HSV-1 glycoprotein D flag) on dp12.CHO cells (human) (UniProt Q06418); remark: listed apart in the source

“purified bovine protein S (Rse-L purified from fetal bovine serum) (from UniProt P07224) (ligand)” gave an EC50 [1] of 1.2 nM.
human protein S (ligand) was tested, and the fold lower affinity than purified bovine protein S [2] was 200 fold and the EC50 [1] was > 250 nM.
In the case of “gD.gas6.279-C.IgG (from UniProt P01857-1) (Fc fusion)”, the KIRA assay, EC50 for activation [3] is reported as 0.4 nM.
With “Rse-IgG fusion protein (extracellular domain of human Rse followed by the Fc portion of human IgG) (from UniProt Q06418) (Fc fusion)” the Kd [4] was 0.82 nM, the Kd [5] was 2.2 nM and the Kd [6] was 0.46 nM.
recombinant human gas6 (ligand) gave a KIRA assay, specific activity (KIRA units/mg P) [7] of 1170.
“recombinant human gas6 lacking the gamma-carboxyl modification of glutamic acid (form 2) (ligand)” gave a KIRA assay, specific activity (KIRA units/mg P) [7] of 3160.

— US5955420
